# From patent publication US20190144863
# Biological target: EZH2 (UniProt Q61188)
# Assay: filter
# Conditions: negative control RNA
# EZH2, sequence (Q61188 whole entry): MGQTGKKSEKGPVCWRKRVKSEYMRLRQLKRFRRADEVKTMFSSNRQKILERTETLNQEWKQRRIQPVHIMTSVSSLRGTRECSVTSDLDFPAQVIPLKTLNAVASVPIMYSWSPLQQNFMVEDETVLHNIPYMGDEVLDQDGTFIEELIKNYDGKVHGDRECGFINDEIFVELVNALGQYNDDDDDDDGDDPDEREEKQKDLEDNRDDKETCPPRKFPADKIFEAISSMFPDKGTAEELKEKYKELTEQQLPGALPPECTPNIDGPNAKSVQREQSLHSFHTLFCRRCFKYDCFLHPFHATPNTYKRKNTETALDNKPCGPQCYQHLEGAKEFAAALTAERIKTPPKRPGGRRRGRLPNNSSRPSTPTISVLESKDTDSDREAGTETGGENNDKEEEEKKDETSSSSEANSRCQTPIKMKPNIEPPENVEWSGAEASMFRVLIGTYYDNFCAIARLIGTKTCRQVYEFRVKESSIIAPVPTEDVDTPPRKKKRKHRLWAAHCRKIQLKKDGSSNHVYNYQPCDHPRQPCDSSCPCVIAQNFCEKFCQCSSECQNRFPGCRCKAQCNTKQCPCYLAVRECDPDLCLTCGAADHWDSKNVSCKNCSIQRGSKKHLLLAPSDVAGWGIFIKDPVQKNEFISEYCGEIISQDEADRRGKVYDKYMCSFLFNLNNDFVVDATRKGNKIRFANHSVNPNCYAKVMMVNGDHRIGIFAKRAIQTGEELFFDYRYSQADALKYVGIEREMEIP
substance,measurement,value
P4P6 RNA,Kd,> 3000 nM
